Consider four sequences from the supplement of paper PMC5998384.

Series [1] relates to HeLa Kyoto. Put plainly: solubility in G1/S (NP-40 vs SDS abundance) (log2 ratio); higher = more soluble. The following applies: cell cycle stage: G1/S.
In series [2] the test system is HeLa Kyoto. Put plainly: solubility change mitosis vs G1/S (difference of NP-40 vs SDS log2 ratios) (log2 ratio difference); higher = more soluble in mitosis.
Series [3] deals with HeLa Kyoto. The experiment in a line: thermal stability score vs G1/S (z-score of summed log2 fold changes over temperatures); higher = more thermally stable than in G1/S.
In series [4] the test system is HeLa Kyoto. The experiment in a line: melting temperature (median over replicates), in situ; higher = more thermally stable.
[5] abbreviates: cell cycle stage: early G1 (4.5 h after nocodazole release).
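Throughout, for melting temperature (median over replicates), in situ: HeLa Kyoto cells synchronized by double thymidine or nocodazole block, proteins quantified by TMT10plex mass spectrometry, three independent biological replicates.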
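Throughout, for solubility change mitosis vs G1/S (difference of NP-40 vs SDS log2 ratios): synchronized HeLa Kyoto cells (double thymidine block for G1/S, nocodazole release for mitosis), protein amounts in NP-40 versus SDS lysates quantified by mass spectrometry, three biological replicates.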
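Throughout, for solubility in G1/S (NP-40 vs SDS abundance): HeLa Kyoto cells arrested at G1/S by double thymidine block, proteins quantified by TMT10plex mass spectrometry in mild NP-40 versus SDS extracts, three biological replicates.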
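Throughout, for thermal stability score vs G1/S (z-score of summed log2 fold changes over temperatures): synchronized HeLa Kyoto cells, proteins quantified by TMT10plex mass spectrometry, three biological replicates, mitosis taken 0.5 h after nocodazole release, G1/S directly after double thymidine block.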

Regarding “MAPVLSKDSADIESILALNPRTQTHATLCSTSAKKLDKKHWKRNPDKNCFNCEKLENNFDDIKHTTLGERGALREAMRCLKCADAPCQKSCPTNLDIKSFITSIANKNYYGAAKMIFSDNPLGLTCGMVCPTSDLCVGGCNLYATEEGPINIGGLQQFATEVFKAMSIPQIRNPSLPPPEKMSEAYSAKIALFGAGPASISCASFLARLGYSDITIFEKQEYVGGLSTSEIPQFRLPYDVVNFEIELMKDLGVKIICGKSLSVNEMTLSTLKEKGYKAAFIGIGLPEPNKDAIFQGLTQDQGFYTSKDFLPLVAKGSKAGMCACHSPLPSIRGVVIVLGAGDTAFDCATSALRCGARRVFIVFRKGFVNIRAVPEEMELAKEEKCEFLPFLSPRKVIVKGGRIVAMQFVRTEQDETGKWNEDEDQMVHLKADVVISAFGSVLSDPKVKEALSPIKFNRWGLPEVDPETMQTSEAWVFAGGDVVGLANTTVESVNDGKQASWYIHKYVQSQYGASVSAKPELPLFYTPIDLVDISVEMAGLKFINPFGLASATPATSTSMIRRAFEAGWGFALTKTFSLDKDIVTNVSPRIIRGTTSGPMYGPGQSSFLNIELISEKTAAYWCQSVTELKADFPDNIVIASIMCSYNKNDWTELAKKSEDSGADALELNLSCPHGMGERGMGLACGQDPELVRNICRWVRQAVQIPFFAKLTPNVTDIVSIARAAKEGGANGVTATNTVSGLMGLKSDGTPWPAVGIAKRTTYGGVSGTAIRPIALRAVTSIARALPGFPILATGGIDSAESGLQFLHSGASVLQVCSAIQNQDFTVIEDYCTGLKALLYLKSIEELQDWDGQSPATVSHQKGKPVPRIAELMDKKLPSFGPYLEQRKKIIAENKIRLKEQNVAFSPLKRNCFIPKRPIPTIKDVIGKALQYLGTFGELSNVEQVVAMIDEEMCINCGKCYMTCNDSGYQAIQFDPETHLPTITDTCTGCTLCLSVCPIVDCIKMVSRTTPYEPKRGVPLSVNPVC [DPYD]”, in the series on HeLa Kyoto [1], the “solubility in G1/S (log2)” value was -0.116. Moreover, the “solubility change mitosis (log2)” value in the series on HeLa Kyoto [2] was 0.02. Besides, the figures for the thermal stability score with HeLa Kyoto [3] (setting [5]) and in the series on HeLa Kyoto [3] (cell cycle stage: mitosis) were -1.59 and -1.63, respectively. Also, the melting temperature in the series with HeLa Kyoto [4] (cell cycle stage: G1/S) worked out at 54 °C; with HeLa Kyoto [4] (cell cycle stage: mitosis), 53.5 °C.
Consider “MAPWTLWRCCQRVVGWVPVLFITFVVVWSYYAYVVELCVFTIFGNEENGKTVVYLVAFHLFFVMFVWSYWMTIFTSPASPSKEFYLSNSEKERYEKEFSQERQQEILRRAARALPIYTTSASKTIRYCEKCQLIKPDRAHHCSACDSCILKMDHHCPWVNNCVGFSNYKFFLLFLLYSLLYCLFVAATVLEYFIKFWTNELTDTRAKFHVLFLFFVSAMFFISVLSLFSYHCWLVGKNRTTIESFRAPTFSYGPDGNGFSLGCSKNWRQVFGDEKKYWLLPIFSSLGDGCSFPTRLVGMDPEQASVTNQNEYARSSGSNQPFPIKPLSESKNRLLDSESQWLENGAEEGIVKSGTNNHVTVAIEN [ZDHHC20]”, for which, in the series on HeLa Kyoto [1], the “solubility in G1/S (log2)” value is -0.00639. In the series with HeLa Kyoto [2], the “solubility change mitosis (log2)” value is -0.0867. Moreover, the thermal stability score in the series with HeLa Kyoto [3] (setting [5]) was -0.885; in the series with HeLa Kyoto [3] (cell cycle stage: mitosis) it was -1.86. Besides, the melting temperature was 55.1 °C with HeLa Kyoto [4] (cell cycle stage: G1/S) and 58.2 °C in the series on HeLa Kyoto [4] (cell cycle stage: mitosis).
In the case of “MAQADIALIGLAVMGQNLILNMNDHGFVVCAFNRTVSKVDDFLANEAKGTKVVGAQSLKEMVSKLKKPRRIILLVKAGQAVDDFIEKLVPLLDTGDIIIDGGNSEYRDTTRRCRDLKAKGILFVGSGVSGGEEGARYGPSLMPGGNKEAWPHIKTIFQGIAAKVGTGEPCCDWVGDEGAGHFVKMVHNGIEYGDMQLICEAYHLMKDVLGMAQDEMAQAFEDWNKTELDSFLIEITANILKFQDTDGKHLLPKIRDSAGQKGTGKWTAISALEYGVPVTLIGEAVFARCLSSLKDERIQASKKLKGPQKFQFDGDKKSFLEDIRKALYASKIISYAQGFMLLRQAATEFGWTLNYGGIALMWRGGCIIRSVFLGKIKDAFDRNPELQNLLLDDFFKSAVENCQDSWRRAVSTGVQAGIPMPCFTTALSFYDGYRHEMLPASLIQAQRDYFGAHTYELLAKPGQFIHTNWTGHGGTVSSSSYNA [PGD]”, the “solubility in G1/S (log2)” value in the series on HeLa Kyoto [1] amounted to 0.123. The “solubility change mitosis (log2)” value with HeLa Kyoto [2] was -0.184. Also, the values for the thermal stability score with HeLa Kyoto [3] (setting [5]) and in the series on HeLa Kyoto [3] (cell cycle stage: mitosis) were 1.53 and 0.62, respectively. Moreover, the melting temperature in the series with HeLa Kyoto [4] (cell cycle stage: G1/S) and in the series with HeLa Kyoto [4] (cell cycle stage: mitosis) was 54.4 °C in each case.
Turning to “MAQEVSEYLSQNPRVAAWVEALRCDGETDKHWRHRRDFLLRNAGDLAPAGGAASASTDEAADAESGTRNRQLQQLISFSMAWANHVFLGCRYPQKVMDKILSMAEGIKVTDAPTYTTRDELVAKVKKRGISSSNEGVEEPSKKRVIEGKNSSAVEQDHAKTSAKTERASAQQENSSTCIGSAIKSESGNSARSSGISSQNSSTSDGDRSVSSQSSSSVSSQVTTAGSGKASEAEAPDKHGSASFVSLLKSSVNSHMTQSTDSRQQSGSPKKSALEGSSASASQSSSEIEVPLLGSSGSSEVELPLLSSKPSSETASSGLTSKTSSEASVSSSVAKNSSSSGTSLLTPKSSSSTNTSLLTSKSTSQVAASLLASKSSSQTSGSLVSKSTSLASVSQLASKSSSQTSTSQLPSKSTSQSSESSVKFSCKLTNEDVKQKQPFFNRLYKTVAWKLVAVGGFSPNVNHGELLNAAIEALKATLDVFFVPLKELADLPQNKSSQESIVCELRCKSVYLGTGCGKSKENAKAVASREALKLFLKKKVVVKICKRKYRGSEIEDLVLLDEESRPVNLPPALKHPQELL [CDKN2AIP]”, the “solubility in G1/S (log2)” value in the series on HeLa Kyoto [1] is -0.0572. The “solubility change mitosis (log2)” value with HeLa Kyoto [2] was -0.0367. Also, the thermal stability score with HeLa Kyoto [3] (setting [5]) turned out to be 1.13; in the series on HeLa Kyoto [3] (cell cycle stage: mitosis) it was 1.43. For the same sequence, the melting temperature is 50.2 °C in the series on HeLa Kyoto [4] (cell cycle stage: G1/S) and 50.8 °C in the series on HeLa Kyoto [4] (cell cycle stage: mitosis).
